Measured values as given in article PMC5358979.

Experiments:
[1] = system: FEN1 WT (Homo sapiens); assay: smFRET; conditions: smFRET reaction buffer with CaCl2 (binding) or MgCl2 (cleavage), SPR in same buffer with CaCl2, no oxygen scavenger, salt, pH and temperature not given in the …; for Kd: Ca2+, Kd-bending
[2] = system: FEN1 WT (Homo sapiens); assay: smFRET dwell-time kinetics; conditions: smFRET reaction buffer with CaCl2 (binding) or MgCl2 (cleavage); SPR in same buffer with CaCl2, no oxygen scavenger; salt, pH and temperature not given in the …

Row | Substance | Kd [2] [nM] | Kd [1] [nM] | further results
1 | DF-7,1mismatch(1nt) | – | – | binding signal (fold Kd-bending increase vs DF-6,1) [1]: 7
2 | EQ DF-6,1Flap | 3.2 | – | –
3 | NonEQ DF-6,1Flap | – | 3.9 | –
4 | NonEQ DF-6,1dsDNA | – | 4.6 | –
5 | SF-6,0Flap | 166 | – | –
